According to patent CN104628856A (INST RADIATION MED AMMS PLA; BEIJING C & N INTERNAT SCI …, dated 2015):

Target: T1, B淋巴细胞刺激因子(BLyS)蛋白 (human, UniProt Q9Y275 134-285, biotinylated (生物素化, sites not stated))
T1 construct: The protein was harvested from the culture supernatant, so it may be the soluble form; It was biotinylated for the ForteBio assay; also called BAFF; 抗原BLyS; not shown: His tag from vector p3457-his
Assay: ForteBio (BLI): biotinylated BLyS at 20 μg/ml loaded, B-11ScFv in 2-fold dilutions from 25 to 0.78125 μg/ml in PBS pH 7.4

Kd: 3.08 nM
B1: 抗BLyS单链抗体B-11ScFv (scFv, V domains shown)
VH: EVQLQESGGGLVQPGGSLRLSCAASGFTFSRYWMLWVRQAPGKGLVWVSRINTDGSSTWYADSVKGRFTISRDNAKNTLYLQMNSLRAEDTAVYYCARDQDGVGATHDYWGQGTLVTVSS
notes: Secreted from 293E cells out of plasmid p3457B-11ScFv and purified on a nickel column, about 30 kDa; also called 11号ScFv; 抗人BLyS ScFv抗体; not shown: His tag from vector p3457his (Ni column purification, anti-His blot)
